# Experimental data: the supplement of paper PMC9112550, “Optimization of the antimicrobial peptide Bac7 by deep mutational scanning” (BMC Biology, 2022)
# System: Escherichia coli TOP10
# Assay: shrunken log2 fold change of peptide-encoding DNA abundance (4.5 h post-induction vs induction); higher = less antimicrobial activity (less host growth inhibition)
# Conditions: time post-induction: 4.5 h; library: site-saturation at positions 5, 18, 19, 20
# 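Also: peptides expressed intracellularly from a pBAD plasmid library in pooled LB shake-flask culture, induced with 0.3% L-arabinose, DNA abundance read by NGS, three biological replicates, DESeq2 with apeglm shrinkage.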
row,Sequence,shrunken log2 fold change
1,RRIRRRPPRLPRPRPRPKASPRP,0.183
2,RRIRRRPPRLPRPRPRPKDHPRP,0.0887
3,RRIRRRPPRLPRPRPRPKENPRP,0.325
4,RRIRRRPPRLPRPRPRPKFCPRP,0.175
5,RRIRRRPPRLPRPRPRPKHKPRP,0.339
6,RRIRRRPPRLPRPRPRPKHPPRP,0.294
7,RRIRRRPPRLPRPRPRPKIQPRP,0.0197
8,RRIRRRPPRLPRPRPRPKKIPRP,0.106
9,RRIRRRPPRLPRPRPRPKKNPRP,0.496
10,RRIRRRPPRLPRPRPRPKPKPRP,0.273
11,RRIRRRPPRLPRPRPRPKQDPRP,0.38
12,RRIRRRPPRLPRPRPRPKQHPRP,0.302
13,RRIRRRPPRLPRPRPRPKSMPRP,0.0108
14,RRIRRRPPRLPRPRPRPKTGPRP,0.1
15,RRIRRRPPRLPRPRPRPKTLPRP,0.146
16,RRIRRRPPRLPRPRPRPKTVPRP,0.233
17,RRIRRRPPRLPRPRPRPKWEPRP,0.364
18,RRIRRRPPRLPRPRPRPLDGPRP,0.0894
19,RRIRRRPPRLPRPRPRPLDLPRP,-0.158
20,RRIRRRPPRLPRPRPRPLDTPRP,0.168

row,Sequence,shrunken log2 fold change
1,RRIRRRPPRLPRPRPRPLEPPRP,0.582
2,RRIRRRPPRLPRPRPRPLEYPRP,-0.326
3,RRIRRRPPRLPRPRPRPLFDPRP,0.136
4,RRIRRRPPRLPRPRPRPLFWPRP,0.472
5,RRIRRRPPRLPRPRPRPLGIPRP,0.984
6,RRIRRRPPRLPRPRPRPLHMPRP,0.0287
7,RRIRRRPPRLPRPRPRPLICPRP,0.119
8,RRIRRRPPRLPRPRPRPLIEPRP,0.35
9,RRIRRRPPRLPRPRPRPLIGPRP,-0.0159
10,RRIRRRPPRLPRPRPRPLKTPRP,0.157
11,RRIRRRPPRLPRPRPRPLKWPRP,-0.107
12,RRIRRRPPRLPRPRPRPLLMPRP,0.395
13,RRIRRRPPRLPRPRPRPLMHPRP,0.292
14,RRIRRRPPRLPRPRPRPLNYPRP,-0.365
15,RRIRRRPPRLPRPRPRPLPDPRP,0.112
16,RRIRRRPPRLPRPRPRPLPSPRP,0.752
17,RRIRRRPPRLPRPRPRPLQGPRP,0.0475
18,RRIRRRPPRLPRPRPRPLQHPRP,0.387
19,RRIRRRPPRLPRPRPRPLQWPRP,0.292
20,RRIRRRPPRLPRPRPRPLRVPRP,0.966

row,Sequence,shrunken log2 fold change
1,RRIRRRPPRLPRPRPRPLSAPRP,0.444
2,RRIRRRPPRLPRPRPRPLSQPRP,0.000673
3,RRIRRRPPRLPRPRPRPLTSPRP,0.233
4,RRIRRRPPRLPRPRPRPLTYPRP,-0.204
5,RRIRRRPPRLPRPRPRPLVCPRP,0.177
6,RRIRRRPPRLPRPRPRPLVTPRP,-0.0631
7,RRIRRRPPRLPRPRPRPLWCPRP,0.186
8,RRIRRRPPRLPRPRPRPLWGPRP,0.0229
9,RRIRRRPPRLPRPRPRPLWQPRP,0.318
10,RRIRRRPPRLPRPRPRPLWRPRP,0.348
11,RRIRRRPPRLPRPRPRPLWYPRP,-0.166
12,RRIRRRPPRLPRPRPRPLYYPRP,-0.259
13,RRIRRRPPRLPRPRPRPMADPRP,0.357
14,RRIRRRPPRLPRPRPRPMAPPRP,0.665
15,RRIRRRPPRLPRPRPRPMCWPRP,0.0358
16,RRIRRRPPRLPRPRPRPMGNPRP,0.0273
17,RRIRRRPPRLPRPRPRPMIVPRP,0.00521
18,RRIRRRPPRLPRPRPRPMLVPRP,0.196
19,RRIRRRPPRLPRPRPRPMPDPRP,0.442
20,RRIRRRPPRLPRPRPRPMPPPRP,0.676
